Reference: publication doi:10.1101/2022.05.21.492920

Target: SARS-CoV-2 S (Acro Biosystems), unlabelled (SARS-CoV-2) (UniProt P0DTC2)
Assay: SPR; Biacore, CM5 chip; S covalently immobilised at pH 4.0 (about 8500 RU); ERα, ACE2 or NRP1 injected at 1.56 to 200 nM; global fit to a single site binding model

| Substance | Kd [nM] |
| --- | --- |
| recombinant NRP1 (Acro Biosystems), analyte in SPR (from UniProt O14786 22-856) (natural protein) | 89.4 |
| ERα-full length (InVitrogen), analyte in SPR (from UniProt P03372 1-595) (receptor) | 9.7 |
